Biological target: SARS-CoV-2 M protein (purified, in LMNG/CHS detergent) (SARS-CoV-2, UniProt P0DTC5)
Assay: cryo-EM structure
Conditions: both partners purified

B1: long conformation Fab (lcFab) (Fab, V domains shown)
VH: EVQLQQSGAELVRPGSSVKISCKGSGYVFSNYWMNWVKQRPGQGLEWIGQIYPGDGDTNYNGKFKGKATLTADKSSSTAYMQLSSLTSEDSAVYFCASGYLGENYVMDFWGQGTSVTVSS
VL: DIVLTQSPASLTVSLGQRATISCRASESVDSFGNSFMHWYQQKPGQPPKLLIYRASNLESGIPARFSGSGSRTDFTLTINPVEADDVATYYCQQSSEDPYTFGGGTKLEIK
notes: also called Fab targeting M_(long)
B1: binds.
